The source of these data is patent US20030190342A1.

Assay [1] deals with calf skin collagen (calf). As to the kind of experiment: cell-based or functional assay.
Assay [2] concerns the target collagen (platelet aggregation agonist, 0.5 µg ml^-1). Description: cell-based or functional assay.
The target in assay [3] is human collagen type III (human) (UniProt P02461). Description: SPR (BIAcore 3000), immobilised human collagen type III, Scatchard analysis of plateau RU; low affinity site. In general terms: SPR reads the build-up and loss of mass on a sensor chip optically.
Sequence of UniProt P02461 (P02461 154-1221): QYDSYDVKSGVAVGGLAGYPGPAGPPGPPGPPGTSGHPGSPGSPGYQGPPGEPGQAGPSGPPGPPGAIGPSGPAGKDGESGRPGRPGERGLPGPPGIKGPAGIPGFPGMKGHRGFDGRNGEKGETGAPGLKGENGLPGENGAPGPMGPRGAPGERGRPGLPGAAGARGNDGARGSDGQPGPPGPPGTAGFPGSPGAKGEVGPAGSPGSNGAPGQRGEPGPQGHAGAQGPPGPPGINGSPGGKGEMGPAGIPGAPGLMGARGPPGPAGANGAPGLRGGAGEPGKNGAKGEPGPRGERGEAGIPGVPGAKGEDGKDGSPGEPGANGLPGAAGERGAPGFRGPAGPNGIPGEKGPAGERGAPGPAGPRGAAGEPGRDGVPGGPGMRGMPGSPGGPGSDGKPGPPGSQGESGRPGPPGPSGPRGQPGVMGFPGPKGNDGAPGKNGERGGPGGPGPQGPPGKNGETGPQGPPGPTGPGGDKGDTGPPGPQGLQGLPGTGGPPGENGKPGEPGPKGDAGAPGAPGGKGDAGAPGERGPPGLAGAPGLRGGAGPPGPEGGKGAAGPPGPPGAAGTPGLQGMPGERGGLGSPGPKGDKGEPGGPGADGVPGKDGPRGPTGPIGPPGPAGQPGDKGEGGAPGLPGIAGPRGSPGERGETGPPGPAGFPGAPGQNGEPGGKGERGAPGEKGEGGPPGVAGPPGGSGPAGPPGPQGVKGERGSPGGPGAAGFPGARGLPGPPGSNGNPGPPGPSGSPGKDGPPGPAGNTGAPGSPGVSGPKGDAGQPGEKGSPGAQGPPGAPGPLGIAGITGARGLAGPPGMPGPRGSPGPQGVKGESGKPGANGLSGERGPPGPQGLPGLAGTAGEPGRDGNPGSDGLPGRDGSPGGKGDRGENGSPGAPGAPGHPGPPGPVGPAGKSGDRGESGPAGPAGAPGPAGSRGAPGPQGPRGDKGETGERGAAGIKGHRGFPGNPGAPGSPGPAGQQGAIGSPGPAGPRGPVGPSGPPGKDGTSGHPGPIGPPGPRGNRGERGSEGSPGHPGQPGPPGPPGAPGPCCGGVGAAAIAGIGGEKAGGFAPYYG
The target is the same in assay [4]. Description: SPR (BIAcore 3000), immobilised human collagen type III, Scatchard analysis of plateau RU; high affinity site.
The target of assay [5] is calf skin collagen (calf). Description: microtiter plate competition: inhibition of binding of vWF in diluted human plasma to coated calf skin collagen.
The target in assay [6] is calf skin collagen (calf). Description: microtiter plate competition: inhibition of binding of vWF in diluted murine plasma to coated calf skin collagen.
Assay [7] addresses calf skin collagen (calf). Description: microtiter plate competition: inhibition of binding of vWF in diluted hamster plasma to coated calf skin collagen.
The target in assay [8] is calf skin collagen (calf). Description: microtiter plate competition: inhibition of binding of vWF in diluted porcine plasma to coated calf skin collagen.
For assay [9], the target named is human collagen type I (human) (UniProt P02452). As to the kind of experiment: microtiter plate competition: inhibition of binding of vWF in diluted human plasma to coated human collagen type I.
Sequence of UniProt P02452 (P02452 162-1218, chain 1 of 2): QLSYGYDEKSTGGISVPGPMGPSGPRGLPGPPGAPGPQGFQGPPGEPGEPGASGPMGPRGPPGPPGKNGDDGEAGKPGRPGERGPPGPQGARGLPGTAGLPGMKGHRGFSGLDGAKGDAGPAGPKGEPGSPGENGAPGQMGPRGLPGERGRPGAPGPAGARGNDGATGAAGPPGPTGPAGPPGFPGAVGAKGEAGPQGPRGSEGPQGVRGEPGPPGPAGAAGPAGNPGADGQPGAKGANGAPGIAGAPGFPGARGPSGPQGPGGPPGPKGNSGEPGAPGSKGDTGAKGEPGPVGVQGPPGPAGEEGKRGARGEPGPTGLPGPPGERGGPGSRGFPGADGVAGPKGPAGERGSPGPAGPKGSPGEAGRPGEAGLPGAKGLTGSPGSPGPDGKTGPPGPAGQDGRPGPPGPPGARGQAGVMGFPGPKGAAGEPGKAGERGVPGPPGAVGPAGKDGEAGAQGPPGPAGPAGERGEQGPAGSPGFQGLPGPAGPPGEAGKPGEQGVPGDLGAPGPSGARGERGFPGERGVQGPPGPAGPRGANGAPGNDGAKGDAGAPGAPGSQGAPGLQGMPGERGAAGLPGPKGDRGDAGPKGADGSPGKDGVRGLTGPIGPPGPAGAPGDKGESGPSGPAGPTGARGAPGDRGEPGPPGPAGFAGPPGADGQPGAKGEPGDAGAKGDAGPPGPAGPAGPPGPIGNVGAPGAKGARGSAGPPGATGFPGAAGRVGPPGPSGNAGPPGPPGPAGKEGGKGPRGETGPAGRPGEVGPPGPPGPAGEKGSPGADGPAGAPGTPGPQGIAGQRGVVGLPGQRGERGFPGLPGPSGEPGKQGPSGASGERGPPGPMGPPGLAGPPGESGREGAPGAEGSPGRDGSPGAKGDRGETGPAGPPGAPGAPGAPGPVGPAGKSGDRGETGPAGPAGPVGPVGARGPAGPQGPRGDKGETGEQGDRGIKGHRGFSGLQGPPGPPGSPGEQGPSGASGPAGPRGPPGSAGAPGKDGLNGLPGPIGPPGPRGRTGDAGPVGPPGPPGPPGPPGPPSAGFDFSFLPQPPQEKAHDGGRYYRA
Sequence of UniProt P02452 (P08123 80-1119, chain 2 of 2, further chain): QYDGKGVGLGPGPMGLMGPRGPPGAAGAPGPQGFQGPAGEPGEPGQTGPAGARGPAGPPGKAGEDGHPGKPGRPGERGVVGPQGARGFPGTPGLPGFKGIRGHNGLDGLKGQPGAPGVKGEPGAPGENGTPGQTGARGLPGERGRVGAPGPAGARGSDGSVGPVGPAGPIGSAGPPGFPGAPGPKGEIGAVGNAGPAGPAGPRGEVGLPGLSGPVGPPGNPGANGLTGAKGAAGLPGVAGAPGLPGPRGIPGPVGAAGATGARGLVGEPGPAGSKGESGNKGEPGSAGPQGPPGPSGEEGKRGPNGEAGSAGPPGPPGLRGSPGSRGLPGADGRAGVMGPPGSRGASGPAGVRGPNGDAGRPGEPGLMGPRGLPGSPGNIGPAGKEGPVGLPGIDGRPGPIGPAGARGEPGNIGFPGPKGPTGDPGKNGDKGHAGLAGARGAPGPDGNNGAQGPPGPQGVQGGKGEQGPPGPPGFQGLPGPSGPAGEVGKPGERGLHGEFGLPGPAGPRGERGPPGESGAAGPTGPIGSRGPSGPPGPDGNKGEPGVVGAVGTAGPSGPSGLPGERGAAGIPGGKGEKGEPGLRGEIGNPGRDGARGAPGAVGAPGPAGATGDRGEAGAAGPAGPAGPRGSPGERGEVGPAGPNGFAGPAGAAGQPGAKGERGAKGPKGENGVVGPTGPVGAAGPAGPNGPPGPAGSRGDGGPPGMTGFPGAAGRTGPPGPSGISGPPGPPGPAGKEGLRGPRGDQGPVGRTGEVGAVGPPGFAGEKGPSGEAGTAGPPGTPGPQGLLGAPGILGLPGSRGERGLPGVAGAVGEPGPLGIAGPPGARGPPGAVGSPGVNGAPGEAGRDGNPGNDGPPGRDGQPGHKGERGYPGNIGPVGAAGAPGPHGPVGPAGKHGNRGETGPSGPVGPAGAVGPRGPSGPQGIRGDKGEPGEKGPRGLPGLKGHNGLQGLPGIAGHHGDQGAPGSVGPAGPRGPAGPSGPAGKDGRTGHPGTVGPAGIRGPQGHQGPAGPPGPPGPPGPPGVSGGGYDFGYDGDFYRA
Assay [10] has the same target. Description: microtiter plate competition: inhibition of binding of vWF in diluted murine plasma to coated human collagen type I.
The target is the same in assay [11]. Description: microtiter plate competition: inhibition of binding of vWF in diluted hamster plasma to coated human collagen type I.
For assay [12], the target named is human collagen type III (human) (UniProt P02461). As to the kind of experiment: microtiter plate competition: inhibition of binding of vWF in diluted human plasma to coated human collagen type III.
Assay [13] concerns the target human collagen type I (human) (UniProt P02452). Description: microtiter plate competition: inhibition of binding of vWF in diluted porcine plasma to coated human collagen type I.
For assay [14], the target named is human collagen type III (human) (UniProt P02461). As to the kind of experiment: microtiter plate competition: inhibition of binding of vWF in diluted murine plasma to coated human collagen type III.
For assay [15] the target is unchanged. As to the kind of experiment: microtiter plate competition: inhibition of binding of vWF in diluted porcine plasma to coated human collagen type III.
Assay [16] deals with human collagen type I (human) (UniProt P02452). As to the kind of experiment: microtiter plate competition: inhibition of purified human vWF binding to coated human collagen I; competitor purified human vWF, detected with anti-vWF-HRP.
The target in assay [17] is calf skin collagen (calf). Description: microtiter plate competition: inhibition of purified human vWF binding to coated calf skin collagen; competitor purified human vWF, detected with anti-vWF-HRP.
Assay [18] concerns the target human collagen type III (human) (UniProt P02461). Description: microtiter plate competition: inhibition of purified human vWF binding to coated human collagen III; competitor purified human vWF, detected with anti-vWF-HRP.

pKd: −log10 of the molar value. Some results are limits rather than exact numbers.

In turn, Saratin gave an IC50 of inhibition of platelet adhesion to collagen-coated coverslips, flow chamber, shear rate 1300 s^-1 in assay [1] of 5.2 µg/mL. Further, the IC50 of inhibition of platelet adhesion to collagen-coated coverslips, flow chamber, shear rate 2700 s^-1 in assay [1] stood at 0.96 µg/mL. In assay [1], this substance yielded an inhibition of platelet adhesion to collagen-coated coverslips, flow chamber, shear rate 300 s^-1 greater than 10 µg/mL. In assay [2], this substance returned an Aggregation (%) of platelet-rich plasma induced by collagen at 10 µg ml^-1 saratin of 67%. This substance came in with an Aggregation (%) of platelet-rich plasma induced by collagen at 20 µg ml^-1 saratin in assay [2] of 63%. The substance also yielded an Aggregation (%) of platelet-rich plasma induced by collagen at 40 µg ml^-1 saratin in [2] of 64%. This substance also returned an Aggregation (%) of platelet-rich plasma induced by collagen at 200 µg ml^-1 saratin in [2] of 0%. Besides, the values for the pKd in assay [3] and in assay [4] were 5.70 and 7.30, respectively. For the same substance, the IC50 (as a rule, the concentration needed to halve the response being measured) in assay [5] came out at 0.3 µg/mL; in assay [6], 0.3 µg/mL; in [7] it was 7 µg/mL; in [8], 0.5 µg/mL; in assay [9], 0.2 µg/mL; in assay [10], 0.1 µg/mL. The IC50 in assay [11] was 0.4 µg/mL; in assay [12] it was 0.9 µg/mL; in assay [13] it was 0.2 µg/mL; in [14], 0.6 µg/mL; in [15] it was 0.5 µg/mL; in assay [16], 0.23 µg/mL. Further, the IC50 in assay [17] amounted to 0.44 µg/mL; in [18] it was 0.81 µg/mL.
